Experimental findings from publication PMC3968158 are described below.

For one experiment, the target named is CrkII SH2 domain, 1-124 (UniProt Q64010). Nature of the experiment: GST pull-down from infected-cell lysate, anti-Tir blot. The note with it: reference: WT Tir (Δtir EPEC + ptir); sites Y474.
The target in the next experiment is CrkL SH2 domain, 9-108 (UniProt P46109). The description is as above. To be noted: reference: WT Tir (Δtir EPEC + ptir); sites Y474.

Take “Tir (translocated intimin receptor) (from UniProt B7UM99) Tir Y474F (Δtir EPEC + ptirY474F)”: the “binding against the reference” value is listed as “lost” with CrkII SH2 domain, 1-124 and “lost” with CrkL SH2 domain, 9-108.
